Test [1] concerns NCI-H441. Description: NCI-H441 xenograft model (Example 11). From the text: The evaluation of anti-c-met antibodies on the in vivo activity of this non autocrine cell line could give some insights about their potency to impact on c-met dimerization.
Test [2] has as its target T1, recombinant c-Met-Extra-Cellular Domain (ECD) fused to an human IgG Fc domain (Homo sapiens, UniProt P08581).
T1 construct: recombinant c-Met-Extra-Cellular Domain (ECD) fused to an human IgG Fc domain (R&D Systems) as antigen; purchased R&D Systems
Description: Determination of affinity constants (KD) by Biacore analysis. It counts as binding. The following applies: text summary of table 4; read-out: affinity for recombinant c-Met-Fc fusion protein. An excerpt: The binding affinity of purified 11E1 and 224G11 antibodies was investigated by BIAcore X using recombinant c-Met-Extra-Cellular Domain (ECD) fused to an human IgG Fc domain (R&D Systems) as antigen (MW=129 kDa). As both c-Met-Fc fusion proteins and antibodies are bivalent compounds, Fab fragments of mAbs 11E1 and 224G11 (MW=50 kDa) were generated by papain cleavage, purified and used in this assay to avoid interference with avidity parameter. For the assay, an anti-Tag histidine capture antibody was coated on CM5 sensorchips. The running buffer was HBS-EP, the flow rate was 30 μl/min and the test was performed at 25° C. Soluble c-Met (ECD_M1)2-Fc-(HHHHHH)2 antigen was captured on the sensorchip (around 270 RU), and the antibodies to be tested were used in solution as analytes. The sensorship was regenerated using Glycine, HCl pH 1.5 buffer on both flowcells for half a minute.

In test [3] the target is T2, HGF-cMet (Homo sapiens, UniProt P08581).
T2 construct: recombinant c-Met-Extra-Cellular Domain (ECD) fused to an human IgG Fc domain
Description: HGF-cMet competition assay (ELISA). Type of test: binding. The following applies: purified murine antibodies. An excerpt:
FIG. 54: HGF-cMet competition assay. In this ELISA-based assay, recombinant Fc-cMET residual binding to plastic coated HGF in the presence of purified murine monoclonal antibodies 11E1, 224G11 and 227H1 was detected with […] and measured at 450 nm;
FIG. 58: HGF-cMet competition assay of 227H1 murine and recombinant antibodies. In this ELISA-based assay, recombinant Fc-cMet residual binding to plastic coated HGF in the presence of the different forms of the 227H1 antibody was detected with a biotinylated unrelated anti-cMet antibody. Purified murine 227H1 monoclonal antibody, chimeric and HZ4VH-derived humanized 227H1-derived recombinant antibodies were tested and compared for their abilities to compete with HGF-cMet binding when measured at 450 nm;
Humanization of the anti-cMet antibodies were performed independently for each chain and sequentially, regarding to the analysed amino acids in each variable domain. The humanization process was evaluated in a first attempt in an ELISA-based binding assay to recombinant Fc-cMet; binding activities the humanized antibodies being compared to the recombinant chimeric antibody. In a second attempt, anti-cMet humanized antibodies were evaluated for their abilities to displace the Fc-cMet binding onto plastic-coated recombinant HGF; this competition assay allowing the direct comparison of murine, chimeric and humanized versions of the anti-cMet antibodies.
These two assays were used to characterize the recombinant chimeric and humanized versions of the murine anti-cMet antibodies. To this end, briefly, anti-cMet variable domains, either murine or humanized, were cloned into LONZA's pCONplus expression vectors series and recombinant IgG1/κ-derived antibodies were expressed in CHO cells. […] Both direct binding and HGF-competition assays were assessed to better characterize recombinant chimeric or humanized versions.

The test system of test [4] is U87-MG. Description: In vivo combination of 224G11 and Temozolomide on U87MG xenograft model. Also noted: species or system Athymic nude mice. Conditions: D22 to D32; Temozolomide 5 mg/kg i.p. As for the experimental part: U87-MG cells from ATCC were routinely cultured in DMEM medium, 10% FCS, 1% L-Glutamine. Cells were split two days before engraftment being in exponential phase of growth. Five million U87-MG cells were engrafted to Athymic nude mice. […] Mice were treated i.p. either with a loading dose of 2 mg of 224G11 Mab/mouse and then twice a week with 1 mg of antibody/mouse or with 3 injections of Temozolomide (D19, D26, D33) at 5 mg/kg. A third group administered with the combine treatment was also included. Temozolomide was given by i.p. injections. Tumor volume was measured twice a week and calculated by the formula: π/6×length×width×height and animal weights were monitored every day over the period of Temozolomide treatment. Statistical analysis was performed at each measured time using either a t-test or a Mann-Whitney test. […] Results are represented in FIG. 48.

Test [5] concerns NCI-H441. Description: In vivo combination of 224G11 and Navelbine on NCI-H441 xenograft model (Example 19). The following applies: day 41 post first injection. On the set-up: species or system Athymic nude mice. Here is the method: NCI-H441 cells from ATCC were routinely cultured in RPMI 1640 medium, 10% FCS, 1% L-Glutamine. Cells were split two days before engraftment being in exponential phase of growth. Ten million NCI-H441 cells were engrafted to Athymic nude mice. […] Mice were treated i.p. either with a loading dose of 2 mg of 224G11 Mab/mouse and then twice a week with 1 mg of antibody/mouse until Day 38 or with 3 injections of Navelbine® (D5, D12, D19) at 8 mg/kg. A third group administered with the combine treatment was also included. Navelbine® was given by i.p. injections. Tumor volume was measured twice a week and calculated by the formula: π/6×length×width×height and animal weights were monitored every day over the period of Navelbine® treatment. Statistical analysis was performed at each measured time using either a t-test or a Mann-Whitney test. […] Results are represented in FIG. 45.

In test [6] the test system is NCI-H441. Nature of the test: In vivo combination of 224G11 and Doxorubicin on NCI-H441 xenograft model. Also noted: species or system Athymic nude mice. The following applies: D11 to D39; Doxorubicin 5 mg/kg i.v. As for the experimental part: NCI-H441 cells from ATCC were routinely cultured in RPMI 1640 medium, 10% FCS, 1% L-Glutamine. Cells were split two days before engraftment being in exponential phase of growth. Ten million NCI-H441 cells were engrafted to Athymic nude mice. […] Mice were treated i.p. either with a loading dose of 2 mg of 224G11 Mab/mouse and then twice a week with 1 mg of antibody/mouse or with 4 injections of Doxorubicin (D5, D12, D19, D26) at 5 mg/kg. A third group administered with the combine treatment was also included. Doxorubicin was given by i.v. injections. Tumor volume was measured twice a week and calculated by the formula: π/6×length×width×height and animal weights were monitored every day over the period of Doxorubicin treatment. Statistical analysis was performed at each measured time using either a t-test or a Mann-Whitney test. […] Results are represented in FIG. 46.

T1 sequence (P08581 25-932 limits assumed): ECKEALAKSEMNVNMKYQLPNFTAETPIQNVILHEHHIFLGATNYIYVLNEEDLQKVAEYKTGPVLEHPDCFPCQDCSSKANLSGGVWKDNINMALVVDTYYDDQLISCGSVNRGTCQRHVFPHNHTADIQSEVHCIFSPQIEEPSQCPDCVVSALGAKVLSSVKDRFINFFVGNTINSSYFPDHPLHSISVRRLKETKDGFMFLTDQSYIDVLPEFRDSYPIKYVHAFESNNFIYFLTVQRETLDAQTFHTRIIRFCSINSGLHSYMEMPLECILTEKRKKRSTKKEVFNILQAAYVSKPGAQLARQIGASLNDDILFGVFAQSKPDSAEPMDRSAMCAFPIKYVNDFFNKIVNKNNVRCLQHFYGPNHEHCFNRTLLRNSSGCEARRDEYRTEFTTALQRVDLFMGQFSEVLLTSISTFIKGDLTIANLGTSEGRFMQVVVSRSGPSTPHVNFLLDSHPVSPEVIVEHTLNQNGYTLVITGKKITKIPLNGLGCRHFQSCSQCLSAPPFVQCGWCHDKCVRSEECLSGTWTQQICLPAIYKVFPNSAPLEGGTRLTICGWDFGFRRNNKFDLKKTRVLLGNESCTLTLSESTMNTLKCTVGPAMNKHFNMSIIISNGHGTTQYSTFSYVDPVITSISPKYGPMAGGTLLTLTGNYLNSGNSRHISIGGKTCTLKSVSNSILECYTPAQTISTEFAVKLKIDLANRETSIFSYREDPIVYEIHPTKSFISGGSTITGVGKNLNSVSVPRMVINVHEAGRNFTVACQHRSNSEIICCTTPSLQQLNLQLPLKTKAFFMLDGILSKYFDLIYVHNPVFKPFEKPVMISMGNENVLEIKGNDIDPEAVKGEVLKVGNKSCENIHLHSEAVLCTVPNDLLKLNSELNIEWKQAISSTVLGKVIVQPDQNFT
T2 sequence (P08581 25-932 limits assumed): as above

B1: 11E1: murine anti-c-Met monoclonal antibody, IgG1 kappa; heavy chain SEQ ID No. 62, light chain SEQ ID No. 63 (antibody, V domains shown)
VH: QVQLQQSGAELAKPGASVKMSCKASGYTFTSYWMNWVKQRPGQGLEWIGYINPTTGSTDYNQKLKDKATLTADKSSNTAYMQLSSLTSEDSAVYYCAIGGYGSWFAYWGQGTLVTVSA
VL: QIVLTQSPAIMSASPGEKVTLTCSASSSVSSTYLYWYQQKPGSSPKLWIYTTSILASGVPARFSGSGSGTSYSLTISSMETEDAASYFCHQWSSYPFTFGSGTKLDIK
modifications: mus musculus
Take B1: the “inhibition of in vivo growth of NCI-H441” value in test [1] is “inhibited significantly”. Moreover, the Kd in test [2] was about 0.04 nM. Moreover, the “HGF-cMet binding competition activity” value in test [3] is given as “moderate, not full but reliable competitive activity”.

B2: 224G11: murine anti-c-Met monoclonal antibody, IgG1 kappa; heavy chain SEQ ID No. 18, light chain SEQ ID No. 21 (antibody, V domains shown)
VH: EVQLQQSGPELVKPGASVKISCKTSGYIFTAYTMHWVRQSLGESLDWIGGIKPNNGLANYNQKFKGKATLTVDKSSSTAYMDLRSLTSEDSAVYYCARSEITTEFDYWGQGTALTVSS
VL: DIVLTQSPASLAVSLGQRATISCRASESVDSYANSFMHWYQQKPGQPPKLLIYRASNLESGIPARFSGSGSRTDFTLTINPVEADDVATYYCQQSKEDPLTFGSGTKLEMK
modifications: mus musculus
For B2, the “inhibition of in vivo growth of NCI-H441” value in test [1] is on record as “inhibited significantly”. Also, the “anti-tumor activity compared to the control group” value in test [4] and in test [6] was “significant anti-tumor activity” in each case. The “reduction of average tumor volume” value in test [5] turned out to be 72%. For the same molecule, the Kd in test [2] is about 0.04 nM. Besides, the “maximum of HGF binding displacement” value in test [3] (at high antibody concentration) is on record as 100%.

Values taken from US8871909B2, “Antibodies inhibiting c-Met dimerization and uses thereof” (Pierre Fabre Medicament, priority 2007, dated 2014).
